Measurements reported in patent US20120207760A1.

What was measured:
[1] = molecular target: recombinant soluble homotrimeric HA of A/Common magpie/Hong Kong/5052/07 - H5N1 (Influenza A virus A/common magpie/Hong Kong/5052/2007 (H5N1)); assay: micro-array; captured IgG, V5-tagged trimeric HA
[2] = molecular target: M2 protein of influenza A/Japan/305/57 (H2N2), on inactivated whole virions (Influenza A virus A/Japan/305/1957 (H2N2)) (UniProt Q6XU12); assay: ELISA, positive control antibody on inactivated whole virions
[3] = molecular target: M2 protein of influenza A/Puerto Rico/8/34 (H1N1), on inactivated virus (Influenza A virus A/Puerto Rico/8/34 (H1N1)) (UniProt P06821); assay: surface plasmon resonance, Fab fragment on influenza virus

Sequence of TCN-032 (8I10) (antibody) (VH): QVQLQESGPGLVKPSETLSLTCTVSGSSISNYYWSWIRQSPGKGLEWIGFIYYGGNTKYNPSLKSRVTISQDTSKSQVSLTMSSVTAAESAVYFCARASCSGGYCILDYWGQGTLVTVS
Sequence of TCN-032 (8I10) (antibody) (VL): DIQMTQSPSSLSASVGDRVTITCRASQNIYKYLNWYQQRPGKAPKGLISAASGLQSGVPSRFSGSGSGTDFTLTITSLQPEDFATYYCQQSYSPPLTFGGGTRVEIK

TCN-202 (2N9) (antibody)
Trimeric HA Binding: RLU [1]: 1370 RLU

TCN-032 (8I10) (antibody)
OD450 [2]: 3.61 OD450

ch14C2 Fab fragment
Kd [3]: 4 µM | koff [3]: 0.0018 s⁻¹ | kon [3]: 500 M⁻¹ s⁻¹
